Results from publication PMC7563377.

Target: PSMA (prostate-specific membrane antigen) (UniProt Q04609)
Test: SPR
Conditions: 2'-fluoro modified ('2F-modified', positions not stated); 3' spacer-NH2 coupled to DSPE-PEG-NHS nanoparticle; OpenSPR, carboxyl chip with amine coupling, running buffer PBS pH 7.4, 20 uL/min; temperature not stated

Chain of UniProt Q04609 (Q04609 44-750): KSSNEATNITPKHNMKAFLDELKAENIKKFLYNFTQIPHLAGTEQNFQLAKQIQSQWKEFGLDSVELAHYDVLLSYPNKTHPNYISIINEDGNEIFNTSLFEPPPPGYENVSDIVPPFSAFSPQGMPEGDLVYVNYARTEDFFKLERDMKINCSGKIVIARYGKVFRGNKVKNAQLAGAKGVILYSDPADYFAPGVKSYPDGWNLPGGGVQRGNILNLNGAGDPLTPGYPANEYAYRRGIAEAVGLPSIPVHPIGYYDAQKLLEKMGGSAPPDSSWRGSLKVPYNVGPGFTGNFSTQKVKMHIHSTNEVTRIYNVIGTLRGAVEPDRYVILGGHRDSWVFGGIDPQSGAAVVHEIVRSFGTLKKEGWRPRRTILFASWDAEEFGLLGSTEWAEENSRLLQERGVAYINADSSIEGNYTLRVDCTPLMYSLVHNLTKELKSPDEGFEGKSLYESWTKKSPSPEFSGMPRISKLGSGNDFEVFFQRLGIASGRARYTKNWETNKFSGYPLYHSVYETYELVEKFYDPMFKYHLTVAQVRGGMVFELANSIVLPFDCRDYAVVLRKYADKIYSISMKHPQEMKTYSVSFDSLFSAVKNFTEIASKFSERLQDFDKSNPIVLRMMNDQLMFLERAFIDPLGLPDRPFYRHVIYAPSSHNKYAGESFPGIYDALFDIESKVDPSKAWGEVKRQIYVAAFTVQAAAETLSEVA

## GGGAGGACGAUGCGGAUCAGCCAUGUUUACGUCACUCCU
  Kd: 602 nM
